Experimental data published in the supplement of paper PMC9732359.
± gives the uncertainty stated by the source.

Experiment: protein stability index of a GFP-peptide fusion (yeast GPS) (PSI 1-4); higher = more stable; sorted into four equal gates, so the index is relative within each strain
Outline: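 Sequencing reads from sorted gates were used to score each peptide. The library consisted of tiled 17-residue yeast protein peptides fused downstream of GFP on a Cherry-expressing plasmid, pooled and carried in yeast. Mid-log cultures in leucine-free medium were split into four equal gates by GFP/Cherry ratio, and each gate's plasmids were PCR-amplified and Illumina-sequenced. The protein stability index adds up, over all gates, the read frequency multiplied by the gate number.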

Sequence	protein stability index (doa10∆)	protein stability index (pdr5∆)	protein stability index (san1∆)	protein stability index (ubr1∆)
GKGESVIFNDNVTETYS [SIR3]	3.08 ± 0.21	2.92 ± 0.14	2.88 ± 0.074	2.87 ± 0.2
DRQCMIMDELLSSIAER [DIB1]	2.7 ± 0.066	2.78 ± 0.053	2.88 ± 0.061	2.68 ± 0.052
HNMKAYYKKFLIEPLPT [BRR2]	1.26 ± 0.055	1.58 ± 0.07	1.18 ± 0.16	1.44 ± 0.084
THLEIEPFTILGAVAGL [RET1]	1.42 ± 0.041	1.91 ± 0.054	2.08 ± 0.12	2.04 ± 0.048
SFNESQRGEDDLTFKLA [RPO21]	–	–	3.54 ± 0.15	1.09 ± 0.14
IFLSKENSAVAAKEGLA [COR1]	1.48 ± 0.058	2.19 ± 0.072	1.95 ± 0.14	1.6 ± 0.062
NNRMGSYDCTGVNELAP [POP1]	2.63 ± 0.099	2.42 ± 0.076	2.74 ± 0.085	2.79 ± 0.059
RNKSAANNDINSLLSNF [YDL088C/ASM4]	2.94 ± 0.15	3.07 ± 0.095	2.99 ± 0.091	3.02 ± 0.056
QLNASISLIPELSVVLS [RRI2]	2.67 ± 0.064	2.96 ± 0.06	2.98 ± 0.044	2.73 ± 0.039
FPNIAIRPTELRLPFSA [PRP8]	2.11 ± 0.084	1.85 ± 0.086	1.93 ± 0.09	2.23 ± 0.076
EQTVEYMVSRAIRDGVI [RPN3]	3.47 ± 0.15	3.58 ± 0.1	2.64 ± 0.17	3.45 ± 0.049
GTPLFTFGKKADVTSNI [YOR098C/NUP1]	1.82 ± 0.05	1.92 ± 0.046	1.51 ± 0.11	2.18 ± 0.036
ERNNIGEICKNYELEKI [YDL116W/NUP84]	2.91 ± 0.14	2.82 ± 0.095	2.94 ± 0.09	2.62 ± 0.059
HGTYFLDNMTYSSVAGT [RRP4]	2.21 ± 0.051	2.3 ± 0.043	2.45 ± 0.062	1.72 ± 0.034
SVNFFVSLLKKNWQNVG [RPL1A]	1.19 ± 0.07	1.32 ± 0.063	1.25 ± 0.14	1.46 ± 0.063
PPPPGFEEDSDLALPPP [PRP8]	3.22 ± 0.078	3.36 ± 0.07	3.19 ± 0.079	3.35 ± 0.057
PAELEGLLDLERVIVVT [FAS2]	2.38 ± 0.1	2.11 ± 0.064	1.78 ± 0.17	1.77 ± 0.11
FVEVERARVTKDLVEIK [RPN5]	3.37 ± 0.11	3.44 ± 0.093	3.33 ± 0.066	3.56 ± 0.058
KKLNKNKKLIKKLSKKY [RPL1A]	3.78 ± 0.21	3.43 ± 0.11	3.1 ± 0.12	3.52 ± 0.22
QNSLLTNTHPNFLSKIR [SNF2]	2.96 ± 0.073	2.92 ± 0.075	3.01 ± 0.07	2.94 ± 0.047
GEIDFIKNIGKSLKNNF [YML103C/NUP188]	2.59 ± 0.21	2.57 ± 0.18	2.17 ± 0.15	–
KALRRKIYINLALGSHN [SSN2]	3.05 ± 0.21	2.76 ± 0.15	2.4 ± 0.11	3.48 ± 0.15
LSASWDKTLRLWDVATG [ASC1]	3.52 ± 0.22	3.22 ± 0.12	–	3.41 ± 0.072
AKTLTYPEVVTPYNIDR [RPO21]	2.17 ± 0.074	2.35 ± 0.078	1.94 ± 0.073	2.05 ± 0.074
STGLKSASDALKGRVVE [RPS1A]	3.29 ± 0.078	3.31 ± 0.071	3.48 ± 0.044	3.37 ± 0.084
FTNPSIVKVFHGAFMDI [RRP6]	1.16 ± 0.084	1.57 ± 0.062	1.63 ± 0.11	1.38 ± 0.049

Sequence	protein stability index (doa10∆)	protein stability index (pdr5∆)	protein stability index (san1∆)	protein stability index (ubr1∆)
ATLQSNEPTQKDEEETE [DSN1]	3.21 ± 0.16	3.18 ± 0.12	3.17 ± 0.1	2.79 ± 0.1
AGENAPSIVFIDEIDAI [RPT2]	2.03 ± 0.17	2.46 ± 0.21	1.74 ± 0.18	1.86 ± 0.14
DAYYDLELRNSVMDDIL [PRP8]	2.98 ± 0.055	3.04 ± 0.044	2.93 ± 0.049	3.09 ± 0.036
AAREKKIRELEAELSST [YIL149C/MLP2]	2.46 ± 0.29	3.25 ± 0.25	–	2.89 ± 0.15
AHRVRDLMDEELRKHAQ [SKI6]	3.14 ± 0.14	3.39 ± 0.12	2.83 ± 0.12	3.29 ± 0.064
RSLATAVATPKAEVTQL [COR1]	2.99 ± 0.1	3.09 ± 0.13	2.98 ± 0.092	2.89 ± 0.042
TISILAAPSGNYKQLTL [RRP43]	1.77 ± 0.035	1.94 ± 0.032	1.92 ± 0.058	1.89 ± 0.033
DKLKVYKQAMNETSEQL [SNF5]	3.17 ± 0.11	3.39 ± 0.15	3.13 ± 0.12	3.11 ± 0.11
YGGDGLDPLEMEGNAQP [RPO31]	3.39 ± 0.081	3.43 ± 0.09	3.28 ± 0.07	3.29 ± 0.089
DIDAVNGAVGKREGKTR [ISW2]	2.94 ± 0.13	3.47 ± 0.11	2.94 ± 0.1	3.4 ± 0.071
ESYYNWKYNNFLQKFEI [YML103C/NUP188]	2.47 ± 0.056	2.83 ± 0.052	2.77 ± 0.059	2.72 ± 0.034
NGFAPISEVMEDRNQRI [FAS1]	3.44 ± 0.093	3.3 ± 0.06	3.42 ± 0.05	3.31 ± 0.038
LRDESLTVDNLSIAIVG [PRE5]	2.65 ± 0.075	2.26 ± 0.066	2.5 ± 0.06	2.93 ± 0.051
PSRKDCMEVASAFMKFS [BRR2]	2.4 ± 0.054	2.78 ± 0.047	2.83 ± 0.06	2.68 ± 0.055
PSTRSNFILEVFGTIIP [YJL039C/NUP192]	1.35 ± 0.085	1.41 ± 0.071	1.28 ± 0.23	1.35 ± 0.072
LVQLKKFSDLKFILQIL [YML103C/NUP188]	2.15 ± 0.08	1.91 ± 0.075	2.34 ± 0.11	1.44 ± 0.059
LIEKVDDTAANNGDKDH [YIL149C/MLP2]	3.09 ± 0.099	3.25 ± 0.084	2.99 ± 0.086	3.09 ± 0.065
EDEDEDDETPSCEVEEI [SNU114]	3.05 ± 0.051	2.22 ± 0.05	2.99 ± 0.056	2.85 ± 0.044
SQSRSAKAGLTFPVGRV [HTA1]	2.8 ± 0.071	2.85 ± 0.08	2.92 ± 0.042	3.07 ± 0.035
CPYCYKKRREYFPEGYN [SIR2]	2.43 ± 0.11	2.41 ± 0.16	2.61 ± 0.2	2.75 ± 0.069
DKIPLNYAMTRNILHNT [SRB5]	1.82 ± 0.057	2.34 ± 0.057	1.83 ± 0.081	1.93 ± 0.035
RITNSFYSTNSQYFKFK [RPN9]	2.5 ± 0.1	2.38 ± 0.076	2.42 ± 0.086	2.83 ± 0.16
LDKQIEELVEAIVLPMK [RPT5]	2.97 ± 0.15	3.02 ± 0.15	3.45 ± 0.12	3.43 ± 0.15
ISHIEKRIESLQKDLQR [SMC1]	1.86 ± 0.065	2.48 ± 0.077	1.75 ± 0.09	1.85 ± 0.066
MVKNVKPSSPPDVKSLV [SIR4]	3.23 ± 0.11	3.12 ± 0.063	2.97 ± 0.085	3.13 ± 0.068
EVYDFTHAVGNNCEDFV [FAS1]	3.15 ± 0.12	3 ± 0.18	2.99 ± 0.071	3.05 ± 0.086
